Source: patent publication US12383631

Experiments:
Experiment in all cases: cell-based or functional assay
[1] = target: IL-18 polypeptide C167 (human) (UniProt Q14116)
[2] = target: IL-18 polypeptide of SEQ ID NO: 50 (E06K, K53A, T63A) (human) (UniProt Q14116)
[3] = target: IL-18 polypeptide of SEQ ID NO: 39 (E06K, K53A) (human) (UniProt Q14116)
[4] = target: IL-18 polypeptide C143 (human) (UniProt Q14116)
[5] = target: IL-18 polypeptide of SEQ ID NO: 30 (E6K, V11I, C38A, K53A, T63A, C76A, C127A) (human) (UniProt Q14116)
[6] = target: IL-18 polypeptide C145 (human) (UniProt Q14116)
[7] = target: IL-18 polypeptide C150 (human) (UniProt Q14116)
[8] = target: IL-18 polypeptide of SEQ ID NO: 46 (E06K, K53A, S55A, M51G) (human) (UniProt Q14116)
[9] = target: IL-18 polypeptide of SEQ ID NO: 52 (E06K, T63A) (human) (UniProt Q14116)
[10] = target: IL-18 polypeptide C153 (human) (UniProt Q14116)
[11] = target: IL-18 polypeptide C149 (human) (UniProt Q14116)
[12] = target: IL-18 polypeptide C159 (human) (UniProt Q14116)
[13] = target: IL-18 polypeptide C155 (human) (UniProt Q14116)
[14] = target: IL-18 polypeptide C154 (human) (UniProt Q14116)
[15] = target: IL-18 polypeptide of SEQ ID NO: 38 (E06K) (human) (UniProt Q14116)
[16] = target: Composition D (LZM-009 conjugated to IL-18 polypeptide of SEQ ID NO: 31) (human) (UniProt Q14116)
[17] = target: IL-18 polypeptide of SEQ ID NO: 34 (E06K, K53A, S55A) (human) (UniProt Q14116)
[18] = target: IL-18 polypeptide of SEQ ID NO: 35 (Y01G, F02A, E06K, M51G, K53A, D54A, S55A, T63A) (human) (UniProt Q14116)
[19] = target: IL-18 polypeptide C146 (SEQ ID NO: 68) (human) (UniProt Q14116)
[20] = target: IL-18 polypeptide of SEQ ID NO: 42 (E06K, K53A, S55A, T63A) (human) (UniProt Q14116)
[21] = target: IL-18 polypeptide C163 (human) (UniProt Q14116)
[22] = target: IL-18 polypeptide C165 (human) (UniProt Q14116)
[23] = target: native IL-18 wild-type (SEQ ID NO: 1) (human) (UniProt Q14116)
[24] = target: Composition A (LZM-009 conjugated to IL-18 polypeptide of SEQ ID NO: 30) (human) (UniProt Q14116)
[25] = target: IL-18 polypeptide of SEQ ID NO: 9 (E6K, C38A, K53A, C68A, D98C) (human) (UniProt Q14116)
[26] = target: IL-18 polypeptide of SEQ ID NO: 40 (E06K, S55A) (human) (UniProt Q14116)

## Fc fused human IL-18 binding protein isoform a (IL-18BPa; R&D systems, Cat #119-BP) (from UniProt O95998 31-194) (Fc fusion)
[1]
  IC50 of IL-18BP on IFNγ secretion, NK92 cells: 0.809 nM
[2]
  IC50 of IL-18BP on IFNγ secretion, NK92 cells: > 1000 nM
[3]
  IC50 of IL-18BP on IFNγ secretion, NK92 cells: > 703 nM
[4]
  IC50 of IL-18BP on IFNγ secretion, NK92 cells: 1.62 nM
[5]
  IC50 of IL-18BPa on IFNγ secretion by NK92 cells: 488 nM
[6]
  IC50 of IL-18BP on IFNγ secretion, NK92 cells: 10.2 nM
[7]
  IC50 of IL-18BP on IFNγ secretion, NK92 cells: 21.3 nM
[8]
  IC50 of IL-18BP on IFNγ secretion, NK92 cells: 0.189 nM
[9]
  IC50 of IL-18BP on IFNγ secretion, NK92 cells: 47.1 nM
[10]
  IC50 of IL-18BP on IFNγ secretion, NK92 cells: 2.22 nM
[11]
  IC50 of IL-18BP on IFNγ secretion, NK92 cells: 1.17 nM
[12]
  IC50 of IL-18BP on IFNγ secretion, NK92 cells: 1.81 nM
[13]
  IC50 of IL-18BP on IFNγ secretion, NK92 cells: 3.23 nM
[14]
  IC50 of IL-18BP on IFNγ secretion, NK92 cells: 3.71 nM
[15]
  IC50 of IL-18BP on IFNγ secretion, NK92 cells: 7.79 nM
[16]
  IC50 of IL-18BPa on IFNγ secretion by NK92 cells: 0.098 nM
[17]
  IC50 of IL-18BP on IFNγ secretion, NK92 cells: 229 nM
[18]
  IC50 of IL-18BP on IFNγ secretion, NK92 cells: > 55 nM
[19]
  IC50 of IL-18BP on IFNγ secretion, NK92 cells: 733 nM
[20]
  IC50 of IL-18BP on IFNγ secretion, NK92 cells: 1060 nM
[21]
  IC50 of IL-18BP on IFNγ secretion, NK92 cells: 0.823 nM
[22]
  IC50 of IL-18BP on IFNγ secretion, NK92 cells: 0.885 nM
[23]
  IC50 of IL-18BP on IFNγ secretion, NK92 cells: 1.47 nM
  IC50 of IL-18BPa on IFNγ secretion by NK92 cells: 0.781 nM
[24]
  IC50 of IL-18BPa on IFNγ secretion by NK92 cells: 6.87 nM
[25]
  IC50 of IL-18BP on IFNγ secretion, NK92 cells: 961 nM
[26]
  IC50 of IL-18BP on IFNγ secretion, NK92 cells: 15 nM
